Reference: PMC4154873, “Delineation of Interfaces on Human Alpha-Defensins Critical for Human Adenovirus and Human Papillomavirus Inhibition” (PLoS Pathogens, 2014)

B1: unnamed (parent)
chain 1: ATCYCRTGRCATRESLSGVCEISGRLYRLCCR
chain 2: MKRARPSEDTFNPVYPYDTETGPPTVPFLTPPFVSPNGFQESPPGVLSLRLSEPLVTSNGMLALKMGNGLSLDEAGNLTSQNVTTVSPPLKKTKSNINLEISAPLTVTSEALTVAAAAPLMVAGNTLTMQSQAPLTVHDSKLSIATQGPLTVSEGKLALQTSGPLTTTDSSTLTITASPPLTTATGSLGIDLKEPIYTQNGKLGLKYGAPLHVTDDLNTLTVATGPGVTINNTSLQTKVTGALGFDSQGNMQLNVAGGLRIDSQNRRLILDVSYPFDAQNQLNLRLGQGPLFINSAHNLDINYNKGLYLFTASNNSKKLEVNLSTAKGLMFDATAIAINAGDGLEFGSPNAPNTNPLKTKIGHGLEFDSNKAMVPKLGTGLSFDSTGAITVGNKNNDKLTLWTTPAPSPNCRLNAEKDAKLTLVLTKCGSQILATVSVLAVKGSLAPISGTVQSAHLIIRFDENGVLLNNSFLDPEYWNFRNGDLTEGTAYTNAVGFMPNLSAYPKSHGKTAKSNIVSQVYLNGDKTKPVTLTITLNGTQETGDTTPSAYSMSFSWDWSGHNYINEIFATSSYTFSYIAQE
chain 3: MRRAAMYEEGPPPSYESVVSAAPVAAALGSPFDAPLDPPFVPPRYLRPTGGRNSIRYSELAPLFDTTRVYLVDNKSTDVASLNYQNDHSNFLTTVIQNNDYSPGEASTQTINLDDRSHWGGDLKTILHTNMPNVNEFMFTNKFKARVMVSRLPTKDNQVELKYEWVEFTLPEGNYSETMTIDLMNNAIVEHYLKVGRQNGVLESDIGVKFDTRNFRLGFDPVTGLVMPGVYTNEAFHPDIILLPGCGVDFTHSRLSNLLGIRKRQPFQEGFRITYDDLEGGNIPALLDVDAYQASLKDDTEQGGGGAGGSNSSGSGAEENSNAAAAAMQPVEDMNDHAIRGDTFATRAEEKRAEAEAAAEAAAPAAQPEVEKPQKKPVIKPLTEDSKKRSYNLISNDSTFTQYRSWYLAYNYGDPQTGIRSWTLLCTPDVTCGSEQVYWSLPDMMQDPVTFRSTRQISNFPVVGAELLPVHSKSFYNDQAVYSQLIRQFTSLTHVFNRFPENQILARPPAPTITTVSENVPALTDHGTLPLRNSIGGVQRVTITDARRRTCPYVYKALGIVSPRVLSSRTF

Variants of: B1
Assay: SPR
Details: with partner chain of the complex shown, read off a plot; for Kd / screen value: steady-state binding curves at 80 sec of association time, 3-fold dilution series from 3 µM to 111 nM
[1] = defensin at 333 nM, immobilized rPenton (2115 RU), peak of sensorgram at end of association (about 180 sec)

Variant	response [1]	Kd (immobilized rPenton (2115 RU))	screen value (immobilized rPenton (2115 RU))	response (steady-state response at 80 sec of association time, point at 3 µM defensin)
chain 1 T12A	630 RU	1500 nM	2200 RU	
chain 1 R28A	340 RU	1300 nM	1100 RU	
chain 1 L26A	200 RU	1300 nM	700 RU	520 RU
chain 1 I22A	490 RU	1500 nM	1600 RU	
chain 1 E21A	480 RU	1600 nM	1600 RU	
chain 1 T7A	690 RU	1300 nM	2100 RU	
chain 1 V19A	260 RU		1200 RU	
